Source: patent publication CN105968201A (UNIV NANCHANG, dated 2016)

Key:
[1] = biological target: T1, 前列腺特异性膜抗原 (PSMA) on LNCaP cells (UniProt Q04609 1-750, limits assumed); experiment: cell ELISA and immunofluorescence on fixed LNCaP cells (PSMA-positive) against MKN45 cells (PSMA-negative), anti-M13 detection
T1 construct: whole, on cells; Cells were fixed with 4% paraformaldehyde before the assay; also called prostate specific membrane antigen; LNCaP细胞(表达PSMA)

[2] = biological target: T2, 重组表达的PSMA胞外区蛋白 (UniProt Q04609 44-750, limits assumed); experiment: indirect phage ELISA, PSMA extracellular region coated at 5 μg/mL, HRP-anti-M13 detection
T2 construct: extracellular domain; Expressed from vector pRAG2a in HEK-293 cells, purified with HisTrap FF Crude and detected with an anti-His antibody; also called 前列腺特异性膜抗原膜外区; PSMA蛋白
T2 sequence (Q04609 44-750 limits assumed): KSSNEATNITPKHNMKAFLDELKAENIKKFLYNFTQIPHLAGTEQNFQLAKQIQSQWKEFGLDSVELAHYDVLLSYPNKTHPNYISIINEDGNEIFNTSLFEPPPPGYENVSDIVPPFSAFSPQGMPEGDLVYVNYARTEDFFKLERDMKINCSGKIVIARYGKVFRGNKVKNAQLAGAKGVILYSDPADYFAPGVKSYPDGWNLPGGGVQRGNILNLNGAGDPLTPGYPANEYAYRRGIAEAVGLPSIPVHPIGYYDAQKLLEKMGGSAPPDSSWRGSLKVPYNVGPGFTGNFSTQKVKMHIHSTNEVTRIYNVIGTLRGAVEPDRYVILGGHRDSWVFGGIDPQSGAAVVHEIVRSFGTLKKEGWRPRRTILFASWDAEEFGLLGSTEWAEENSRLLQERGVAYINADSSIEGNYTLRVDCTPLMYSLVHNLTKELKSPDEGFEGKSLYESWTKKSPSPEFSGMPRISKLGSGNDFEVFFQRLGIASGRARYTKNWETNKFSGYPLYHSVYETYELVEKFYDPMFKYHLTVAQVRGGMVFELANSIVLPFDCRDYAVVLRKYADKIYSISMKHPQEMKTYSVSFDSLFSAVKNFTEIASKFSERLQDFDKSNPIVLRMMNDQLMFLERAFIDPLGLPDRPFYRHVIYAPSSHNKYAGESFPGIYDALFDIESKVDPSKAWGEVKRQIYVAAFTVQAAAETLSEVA

T1 sequence (Q04609 whole entry): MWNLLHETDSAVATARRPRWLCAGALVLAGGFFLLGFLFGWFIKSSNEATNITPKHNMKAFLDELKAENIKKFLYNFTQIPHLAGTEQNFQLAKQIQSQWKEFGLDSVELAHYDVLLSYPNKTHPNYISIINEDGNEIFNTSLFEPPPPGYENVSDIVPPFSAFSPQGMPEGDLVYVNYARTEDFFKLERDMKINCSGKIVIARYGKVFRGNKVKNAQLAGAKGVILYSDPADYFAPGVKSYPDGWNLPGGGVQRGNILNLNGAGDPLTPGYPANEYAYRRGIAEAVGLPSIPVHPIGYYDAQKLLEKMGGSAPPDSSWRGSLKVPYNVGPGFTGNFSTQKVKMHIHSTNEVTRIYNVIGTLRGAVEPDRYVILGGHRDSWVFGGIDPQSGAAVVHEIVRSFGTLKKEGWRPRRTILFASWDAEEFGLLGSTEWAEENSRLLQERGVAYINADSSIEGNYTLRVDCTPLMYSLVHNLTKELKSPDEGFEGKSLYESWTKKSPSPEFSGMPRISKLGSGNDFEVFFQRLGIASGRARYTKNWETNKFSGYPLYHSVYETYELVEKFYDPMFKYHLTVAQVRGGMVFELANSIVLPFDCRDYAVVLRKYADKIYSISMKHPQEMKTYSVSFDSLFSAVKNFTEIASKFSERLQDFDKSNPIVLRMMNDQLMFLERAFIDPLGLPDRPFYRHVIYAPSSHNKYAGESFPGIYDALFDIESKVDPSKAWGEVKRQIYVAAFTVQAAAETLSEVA

B1: 抗前列腺特异性膜抗原单域重链抗体噬菌体阳性克隆 (VHH)
VHH: QVQLVESGGGLVQAGGSLRLSCAASGRFSRYAMGWFRQAPGKEREFIASISRSGGTTYYGDSVKGRFTISRDNAKNTVYLQMNTLKAEDTAVYYCAARTKGFGLRGQYHYWGQGTQVTVSS
notes: also called 针对前列腺特异性膜抗原的单域重链抗体阳性克隆; 展示本发明所述纳米抗体的噬菌体克隆
binding result [1]: binds | binding result [2]: binds
